Assay: soluble on expression in E. coli; label from the status in PepcDB or PDB records

Sequence	soluble on expression in E. coli
MGSDKIHHHHHHMNRIGIIGAMQIEIDLLLEKLAIQEKQTIAGMPFYVGEFMGMEVIVTRCGVGKVNAAACTQTLIHKFDVDAIINTGVAGGLHPDVKVGDVVISTNVTHHDVSKTQMKNLFPFQEEFHASKKLMELARTACNSSSLHIGVHEGRIVSGECFVEDSKLKAKLIDEYAAHCTEMEGAAIGHVAYINEVPFLVIRCISDSADDEAQISYDDFAKTAANYCSEIIVEMLKNISSKTYSSKGGNEMLQAFIFDMDGTLFQTDKILELSLDDTFDHLRSLQLWDTVTPIEKYREIMGVPLPKVWETLLPNHSIEVREQTDAYFLERLIENIKSGKGALYPNVKEIFTYIKENNCSIYIASNGLTEYLRAIVSYYALDQWVTETFSIEQINSLNKSDLVKSILNKYDIKEAAIVGDRLSDINAAKDNGLFAIGCNFDFAQEDELVQADIVIDDLMELKGILPAVQR	not soluble
MGSDKIHHHHHHMNRKVAIVTGTNSNLGLNIVFRLIETEDTNVRLTIVVTSRTLPRVQEVINQIKDFYNKSGRVEDLEIDFDYLLVDFTNMVSVLNAYYDINKKYRAINYLFVNAAQGIFDGIDWIGAVKEVFTNPLEAVTNPTYKIQLVGVKSKDDMGLIFQANVFGPYYFISKILPQLTRGKAYIVWISSIMSDPKYLSLNDIELLKTNASYEGSKRLVDLLHLATYKDLKKLGINQYVVQPGIFTSHSFSEYLNFFTYFGMLCLFYLARLLGSPWHNIDGYKAANAPVYVTRLANPNFEKQDVKYGSATSRDGMPYIKTQEIDPTGMSDVFAYIQKKKLEWDEKLKDQIVETRTPI	not soluble
MGSDKIHHHHHHMNRTMSSINVLSLPVFNRDASGYDALRRGLIPCFDAFYGTALDLIDDWRDAEKLRVLDLGAGTGLFTAMLLTRHPDAQIHLIDASEKMLEQARKRFDGNPAITYAVADMANTELGGPWDLIISALAIHHLEDIGKKHLFGEIRGALSEGGLFVNVEQVLGHDPEVEARYARTWLQQVRRLGVAEVEIAKAHERMSHDRCSPLENQLQWMRDTGFCEIDCSFKAWRFAVLSGRR	not soluble
MGSDKIHHHHHHMNTFPAVLIGGPPHSGKSVLTYLLTQYLRQRGIEHYVLRACPDGEGDWSQESTPDLVRLLRQKGAFDRTFVDRVCRDIEQRHLPLLVDVGGRPTLDQERIIQRCTHAIVLSATPQGMDEWRNRVEQYGLIIVAELHSELHGSDQIEVEKPVLRGVISGLERNAPTGGIVVEALANRLARLMHYDQAELVQQHLQRAPAELVVDLDRLARQMWVEATQRRWIPPDLPQILDSIPAKTPLAIYGRGPNWLYAALAGHTAPAPFSLFDPRLGWAQAQSLRRVPQPVADVIRWQTREEQDYTLLKAHLLEPYLDYDDLSALTVPRLDPQRGVVVSGKLPFWLLTSLIVTYHEHPWLAVIQPQLNPNSVIIFSRCEDYRPGNSIQVVLD	not soluble
MGSDKIHHHHHHMNTLQRRKTHQVRIDHITVGSEAPVVIQSMTNTDTADAKATALQIKELSDAGSEMVRITVNSPEAASKVAEIRRRLDDMGYATPLIGDFHFNGERLLAEFPECGKALSKYRINPGNVGKGVKGDEKFAFMIRTAAENDKAVRIGVNWGSLDQSLAKRMMDANLASSAPKPPEEVTKEALIVSALESAEKAVLLGLPEDKIILSCKVSAVQDLIQVYRELGSRCAYPLHLGLTEAGMGSKGIVASTAALSVLLQEGIGDTIRISLTPEPGSPRTQEVVVGQEILQTMGLRSFTPMVTACPGCGRTTSTVFQELAQDVQNYLRQKMSIWRTLYPGVESLNVAVMGCVVNGPGESKLADIGISLPGTGETPVAPVYVDGERKVTLKGDNIATEFLAIVEEYVKTNYGENGSKRNQNKIIPIQSL	not soluble
MGSDKIHHHHHHMNTLTDVEWNAFALPANLADGHAYHDMHVAFMEIMKNLERIWSEADKITPPRMALDFKNSFSRLIKSPSLMPHTHYKICPSASNSIDLIAAFLHGKNIRTVLVEPTFDNLALLLQRRGVTVDSVSEDNLTHHLVDGNFDSIPAIKTAEAVFIVSPNNPTGYTLSLQEFKTLVAYCKRTEKLLVVDNSFRFFNRQGYDDYQVLLESGVNFIAFEDTGKTWPTQDLKASLIIYSDTVKVFFESLYNEIYLCVSNFVLHLFSHLFDATSAVGLKSVLWDVVDSNRALLRETLQGSVLRISETSKEGLK	not soluble
MGSDKIHHHHHHMNVHVAVQTQAHRLDSNTAAFARDVLDGLTKPQKELSPKYFYDDTGSELFVEITRLPEYYPTRTELGILRDRAAEIAALIPPDAAIVEFGAGATTKIRLLLAAHQVAAYVPVDISGDFIITQAEALQRDFPQLAVHPLAADFTKPFALPPAVRDLPKVGFFPGSTIGNFEPQEARRFLESARDILGRGARMIIGVDLEKDENVLVPAYDDAAGVTGKFNLNLLIRINRELGADFDLSAFAHRAIYNRDQHRIEMHLVSLRDQSVHLFGERIGFRAGESIHTENSYKYSLERFRALAQQAGWTPARCWTDADAMFSVHAIETNGSRV	not soluble
MGSDKIHHHHHHMNYEDFKEVIHGRRSVRKFTEQEVATSDIKDIIDCARYAPSDTNSQTWEFLVIMNREKIKEIEQMTWDALHKLAAKAAKNGEEKAGKLLTRSFGPYATAFSEAPVLIVCLATPYESKFREKIFDPIAFVPDSVWEEEGIKSSCLAAQNLMLAAHAKGLGTCPMTGPVLLAQDELRQYLQIEPEKQINMVISLGFPKDKPKKLPRKEVDEITTFVF	not soluble
MGSDKIHHHHHHMNYRERIAQSITPLQGNLFRVVESQEDIATARIVDSMQEQNRLEELLESNKPPVPGTARKRHYLLTTPFRYPPLKYGSRFGRSFEPSLFYGAMSIPTALAETAFYRFVFMSHLKVPFKRPLTTLHTVFSARFRTERGVRLQSEHWQDLHHTLADPVSYRESQAVGTDMRSLQVGAFQFLSARALQAGLYALPYHPDNGVEGVNVALFNASVFRDAAPRSYQKLIAVTSPSQVSMSLSEPDGSKKVYEFSLDQFLVEGELPQPAP	not soluble
MGSDKIHHHHHHMNYRTIAKNGSTEETIKKSRFICQAKRITNEAEGRDFITQIKKEHYKARHSCSAMIIGENSDIKRSSDDGEPSGTAGIPMLSVLEKKQLTNLVLVVTRYFGGIKLGTGGLIRAYSGGAANTLKALGIVEVKKQTGLRLELTYPQYQTFANFLKEHQLQEYDTDFSVTVNTTIYVDKKDIEFTLDQLTEFYQGKLKSHVAGNQIIEVPVI	not soluble
MGSDKIHHHHHHMPAIELSNGEARLLARPDLGAGLTAFDVLHDGVWQAIFRRVDPSTAHPFALSNILLVPFSGRVSGGGFTFDGTFHALPRNVETELYPIHGNGFSAAWDVASLSADLLTLTLSAEGPGPFRYDATMSYRLQGAGLLMELSLVNRARIRLPYGAGFHPWFVREPDTTLHAPARGVWLEQSDHLPKAHDAIAAQADLDFNRPKPLPARWINNWFDGWDGKARIHWPSRGLAVDVDASEGLRQYVVFSPAAAADFFCFEPVTHPVDAFNLPGKAEAHGLKILEPDESLAVSARVAADFG	not soluble
MGSDKIHHHHHHMPCKNFFTTRPIMEEDCLWDKRRKIVDDLFRTVLRGNIAILLGPRRVGKTSVVNVISQKFAKRRNHHYIYFNFSRFIGARAISIADIEPKRTSLKLITTSKSYVISLKGISVEVRKTSIEEFTSDFSTLVRILSQNSERGLLIFDEAQVLARLKNLDFRGLIQEITDSYPNISMIFTGSMPGLLIEYLNPGPDKPNFMRASETFTLSRWNVEEGLEFLKKGFESYGISVRNELELERAVKELGGIPGFISYYGITVINLVRSGVPVEKALPRALEESKRYALEEWKKDLEAFLNVYNSPIYVEVMKVLASSYPTALKGAEVYRRMNRAPKRIQHIYKYLDVLEKVGFIRSEGGKYWIEDPILRELLT	not soluble
MGSDKIHHHHHHMPCMTLLRRAFAIPLLLMVSSGLALAERPAENQKIALQMYTLRSVSTLDEQFSMAHNAGFKAVELVGTHGISASEMKGLLGKYQLKAIAAHVQLGELKSNMAEVVAFNKAIGNRMIIVPWLNVEDRPNSAEGWQRFGTEMNDLGRELKKQGMQLAYHNHNFEMKKYRGKTALEIMLDAAEPENLMLEMDVAWVSLGGQDPARLLRQYKGRIYSIHAKDNTSIGIRDDEMNFAPPGEGILAWEEILPAAAKAGTQWFVAEHDLPKDPQAIISAAYQSLYEKLSKVKSK	not soluble
MGSDKIHHHHHHMPDFSYAKITKLVVHFAGNKAREEGTEVSANVLQDIGSEMNQTLASIFLEPFTKDDYYQFSHETDLDFNEVRTFAANMFGAEEEFLDESKKILEHLYSETTHPNIKSGDVWIFFIEGCVVDGDFTNGIGIFKVENKEVFLKNDFNGSEFQIGYDKGITGTDLDKGCLIFNVDHDSGNKVLILDRLNRGDSVYWKDKFLSIDKITDEKFYTEGFVEVCTDYIKQREESLLDKSNFVKATSEYLAGEETLNIAEFARTTIEKPEEITEFNTMVDTFERENNVRFPETFQLDEEKREKLSKKIRKTIKLGKNISVVVKDLEQLEETDFVQGYDEEKGKNYMIVYYD	not soluble
MGSDKIHHHHHHMPFDGLLLHKAVRELKELEGEHLRQIYQPTTVDYYFLFRSATVRVCLRPDVSHVAIAEKEEASEKMPSSFTMLLRKELKGAKLLKVEQIGMDRTLRFSFEKFDEIEGIVQKDLYIEIMGIHSNMILVRDRRIIDAHRRIVTKKREILPGREFVIFPSGKVSIFELRELPPESEKTIRNVLLSLLEGFSPVSVEELIHRTGYELDTPWKAVDQRKILEVLEEIKKELELPGVFVYYEASHPVEVSAFRFTMLSLKERYFEKPSEGINEFVRWKEEKSTFENTKNRFIKVVVNRIEDLEDLEEKLSRELSEAEKAERYKKLGDLIVQNLWSIKGKSGEVELTDWETNEKIVVDVGKDPAQTAQKFYNTYKKLQRKKEQVEKRLEEIQREKEYLYQLWQTIEDAEDLETLEEIEEEMREFGLLKERKTKKQKSKKTRFREVYYGGFKILIGRNNKQNDELVRTSSKEDLWFHAHEMPGAHVVVKTEGKKVPQEVVEYAASLAAGYSKGKNSGKVPVDYTFIKYVRKPKGFKPGMVIYKNYKTILVEPRRIEG	not soluble
MGSDKIHHHHHHMPFENAPHLVFWEVTKACPLSCKHCRANAIDKPLPGELSTEESKKLLEDIARFGKVVIVFTGGDPLSRSDIFEIMEYAKSLGLIVSIAPSPSYRLRDETMKMISNYARYMSISIDGATSQTHDWLRGLGSYNYALRGIELGLKYGIQVQVNTLVWKKSYSELPFLVKLLKELGVKVWEVFFLIPVGRGVIELDIPKEKYKDVIDFLVETTRYDLVVRTVEAPFFRRAKLEYTPSTIKSNELVSKLRELLGEPVKDVDKSVLPTRDGSGVIFIGYNGDVYPSGFLPLYLGNVRKESIVDIYRKSEVLKIIKDGRFDGKCGVCKFNNICGGSRARAFAVYNNPFAEDPMCPY	not soluble
MGSDKIHHHHHHMPGAYAHLTMVNLVKEPDRLEKQGFPPEAIVSILDYFRFCELGAVSPDYPYLDIAHSSAGQWADRMHYQRTGDMIKAGVEWIRRLDGASRQKAFSWLLGYTSHVVTDTTIHPVIELKVGEYQKNKDKHRICEMHQDAYIFQRLNLGEIGLAEHLDSGIWSCCDKPGSGKLDSVITRTWQSMLETCYAGACQTDPPLIDNWHGAFKFVVDKAEEGHALPPFARHVAANLGLTYPAVADLDPQYLESLATPLEAMSYDAIFDRALENVLATGSLIAKAVFQNDNSYATALVNCNLDTGKDDQGNHIYWKKGVS	not soluble
